Data from paper PMC5676748, “Structural basis for high-affinity actin binding revealed by a β-III-spectrin SCA5 missense mutation” (Nature Communications, 2017).

Biological target: rabbit skeletal muscle actin, filamentous (F-actin) (rabbit (Oryctolagus cuniculus), UniProt P68135 1-377)
Assay: co-sedimentation; 3 µM ABD with F-actin from 0 to 140 µM in F-buffer (10 mM Tris pH 7.5, 150 mM NaCl, 0.5 mM ATP, 2 mM MgCl2, 1 mM DTT), 30 min at 23–24 °C, pelleted at 100,000 x g; unbound ABD in the supernatant quantified on Coomassie gels; fit to Y=X/(Kd+X)
Settings: both partners purified

Kd: 75 µM
B1: WT β-III-spectrin ABD (amino acids 1–284), pE-SUMO construct (domain or fragment)
chain: MSSTLSPTDFDSLEIQGQYSDINNRWDLPDSDWDNDSSSARLFERSRIKALADEREAVQKKTFTKWVNSHLARVTCRVGDLYSDLRDGRNLLRLLEVLSGEILPKPTKGRMRIHCLENVDKALQFLKEQKVHLENMGSHDIVDGNHRLTLGLVWTIILRFQIQDISVETEDNKEKKSAKDALLLWCQMKTAGYPNVNVHNFTTSWRDGLAFNAIVHKHRPDLLDFESLKKCNAHYNLQNAFNLAEKELGLTKLLDPEDVNVDQPDEKSIITYVATYYHYFSKMK
notes: also called WT ABD; pE-SUMO-ABD WT; source: E. coli BL21(DE3)pLysS, purified (Ni-NTA, Ulp1 cleavage, second Ni-NTA, Sephadex S100 gel filtration)
